# Data reported in patent publication US12091776B2, “Protease activity profiling via programmable phage display of comprehensive proteome-scale peptide libraries” (THE JOHNS HOPKINS UNIVERSITY, priority 2019, dated 2024).
# “And” between values parts separate entries of the source, which are not always exact repeats. Equal values may be shown once.
# T1: Caspase-1 (Homo sapiens, UniProt P29466)
# T1 construct: purchased BioVision
# T1 sequence (P29466 120-297 limits assumed): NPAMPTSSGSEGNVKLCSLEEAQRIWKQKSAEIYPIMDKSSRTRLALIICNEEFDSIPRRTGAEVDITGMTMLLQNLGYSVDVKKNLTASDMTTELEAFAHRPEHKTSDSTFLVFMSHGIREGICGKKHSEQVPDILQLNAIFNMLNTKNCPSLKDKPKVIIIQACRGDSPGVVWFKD
# T1 sequence (P29466 317-404 limits assumed): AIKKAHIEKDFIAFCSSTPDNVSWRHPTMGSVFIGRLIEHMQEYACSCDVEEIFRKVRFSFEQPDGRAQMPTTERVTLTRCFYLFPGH
# T2: endogenous Caspase-1 (Homo sapiens, UniProt P29466)
# T2 construct: endogenous in cells; host or cells: PMA-differentiated THP-1 cells
# T2 sequence (P29466 120-404): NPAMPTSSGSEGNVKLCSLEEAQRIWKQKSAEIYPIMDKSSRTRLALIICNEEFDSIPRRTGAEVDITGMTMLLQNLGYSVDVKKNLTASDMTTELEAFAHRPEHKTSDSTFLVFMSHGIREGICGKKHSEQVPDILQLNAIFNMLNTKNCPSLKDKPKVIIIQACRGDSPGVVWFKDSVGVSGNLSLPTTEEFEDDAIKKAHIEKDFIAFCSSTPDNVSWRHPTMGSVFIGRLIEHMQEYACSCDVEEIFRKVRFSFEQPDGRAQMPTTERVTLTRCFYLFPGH
# B1: IL-1β: mouse IL-1β (SEQ ID NO:73); library peptides containing Caspase-1 cleavage sites D26 and D117 (protein, UniProt P10749 118-269, looked up)
# Interleukin-1 beta: VPIRQLHYRLRDEQQKSLVLSDPYELKALHLNGQNINQQVIFSMSFVQGEPSNDKIPVALGLKGKNLYLSCVMKDGTPTLQLESVDPKQYPKKKMEKRFVFNKIEVKSKVEFESAEFPNWYISTSQAEHKPVFLGNNSGQDIIDFTMESVSS
# B2: Gasdermin-D: well characterized human Caspase-1 substrate (protein, UniProt P57764 1-484, looked up)
# Gasdermin-D: MGSAFERVVRRVVQELDHGGEFIPVTSLQSSTGFQPYCLVVRKPSSSWFWKPRYKCVNLSIKDILEPDAAEPDVQRGRSFHFYDAMDGQIQGSVELAAPGQAKIAGGAAVSDSSSTSMNVYSLSVDPNTWQTLLHERHLRQPEHKVLQQLRSRGDNVYVVTEVLQTQKEVEVTRTHKREGSGRFSLPGATCLQGEGQGHLSQKKTVTIPSGSTLAFRVAQLVIDSDLDVLLFPDKKQRTFQPPATGHKRSTSEGAWPQLPSGLSMMRCLHNFLTDGVPAEGAFTEDFQGLRAEVETISKELELLDRELCQLLLEGLEGVLRDQLALRALEEALEQGQSLGPVEPLDGPAGAVLECLVLSSGMLVPELAIPVVYLLGALTMLSETQHKLLAEALESQTLLGPLELVGSLLEQSAPWQERSTMSLPPGLLGNSWGEGAPAWVLLDECGLELGEDTPHVCWEPQAQGRMCALYASLALLSGLSQEPH
# B3: APLPRSNRSRCPGTRQPGAASLHAASAAVPVRPRRGTAPAGKTADAVPAAAPEQAPRPAPQSRKPRNLEGDLDERRLLCHLQLAQDREAR (protein, listed as Homo sapiens)
# chain: APLPRSNRSRCPGTRQPGAASLHAASAAVPVRPRRGTAPAGKTADAVPAAAPEQAPRPAPQSRKPRNLEGDLDERRLLCHLQLAQDREAR
# Tests used:
# Caspase-1 [1] = target: T1, Caspase-1; assay: SEPARATE assay: 56-amino acid mouse peptidome library digested with Caspase-1; assay type: biochemical; conditions: mouse library peptides of IL-1β and Gsdmd, FIG. 8
# Experimental: (§1) Streptavidin-coupled magnetic beads (Dynabeads M-280 Streptavidin, ThermoFisher Scientific) were washed (TBS, pH 7.4, 0.01% NP40) and resuspended in binding buffer (TBS, pH 7.4, 0.001% NP40) containing 2E9 plaque forming units per 10 μl of bead slurry. End-over-end mixing at room temperature was performed for one hour. Phage-coated beads were washed three times with wash buffer and transferred into two protein LoBind Eppendorf tubes blocked with TBS, pH 7.4 containing 1% BSA.
# Digestion occurred overnight at room temperature with end-over-end rotation. […]
# Library PCR preparation, high-throughput DNA sequencing, and peptide read count data generation was performed as described previously.^44 Briefly, library peptide inserts are amplified by resuspending 10 μl of FLAG-coated Protein G beads in PCR1 master mix containing the T7-Pep2_PCR1_F forward primer ([…]) (SEQ ID NO:3) and a T7-SEPARATE vector specific reverse primer ([…]) (SEQ ID NO:4), which includes an adapter sequence for sample-specific barcoding and Illumina P7 adapter incorporation during a subsequent PCR2 reaction. The PCR2 amplicons are pooled and sequenced using an Illumina NextSeq instrument in standard output mode to obtain single-end 50 nucleotide reads. Dual indexed sample demultiplexing and clonal read count determination were performed using exact sequence matching. […]
# Caspase-1 [2] = target: T1, Caspase-1; assay: SEPARATE assay: human peptidome library digest with Caspase-1; assay type: biochemical; conditions: human library, Caspase-1
# Experimental: as §1
# Digestion occurred overnight at room temperature with end-over-end rotation. […] To remove any residual biotinylated phage that may have been nonspecifically released, the 150 μl supernatant of the quenched digest reaction is then incubated with a fresh 10 μl of slurry volume M280 streptavidin beads (pre-washed three times with wash buffer) in a LoBind Eppendorf tube blocked with TBS, pH 7.4 containing 1% BSA at room temperature for one hour with end-over-end rotation.
# 10 μl slurry volume of protein G magnetic dynabeads were washed in buffer (TBS, pH 7.4, 0.01% NP40) and then resuspended in 50 μl TBS, pH 7.4, 0.01% NP40 containing 4 μg of M2 FLAG antibody for thirty minutes at room temperature with end-over-end rotation. The 150 μl quenched digest reaction is added to the 10 μl FLAG-coated Protein G beads and incubated for 60 minutes at room temperature with end-over-end rotation to capture phage particles released at the protease digest step. Beads are rinsed once with 100 μl wash buffer and stored at −80° C. until PCR amplification.
# Library PCR preparation, high-throughput DNA sequencing, and peptide read count data generation was performed as described previously.^44 Briefly, library peptide inserts are amplified by resuspending 10 μl of FLAG-coated Protein G beads in PCR1 master mix containing the T7-Pep2_PCR1_F forward primer ([…]) (SEQ ID NO:3) and a T7-SEPARATE vector specific reverse primer ([…]) (SEQ ID NO:4), which includes an adapter sequence for sample-specific barcoding and Illumina P7 adapter incorporation during a subsequent PCR2 reaction. The PCR2 amplicons are pooled and sequenced using an Illumina NextSeq instrument in standard output mode to obtain single-end 50 nucleotide reads. Dual indexed sample demultiplexing and clonal read count determination were performed using exact sequence matching. […] To calculate the normalization factor, 100 peptides were randomly selected from the mock digest conditions with a read count ranging between 10 and 40. The median read count value for these 100 peptides is calculated for each sample. The random peptide selection and median calculation is performed 20 times and the average of the 20 median values is calculated for each sample. Finally, the normalization factor is calculated by dividing the average median value for each sample by that for one of the mock digest conditions. Read counts are then converted to normalized read counts by dividing each sample's read count values by the normalization factor. Fold enrichments are calculated for each peptide by dividing their normalized read counts in the digest condition by the normalized read counts in the mock digest condition. The fold enrichments can be visualized in an MA plot by transforming the normalized read count data into a log ratio (M, on the y-axis) and a mean average (A, on the x-axis) between the digest and mock digest conditions.
# endogenous Caspase-1 = target: T2, endogenous Caspase-1; assay: In vitro stimulation of the inflammasome in THP-1 cells (Western blot); assay type: cell-based; conditions: PMA differentiated THP-1 cells, LPS and Nigericin
# Experimental: THP-1 cells were cultured in RPMI-1640 media with Glutamax (Gibco, ThermoFisher, Cat #61870127), supplemented with 10% FBS (Hyclone SH30071, GE Life Sciences), and 1× Antibiotic-Antimycotic (Gibco, ThermoFisher, Cat #15240062), referred to as complete RPMI. To differentiate THP-1 cells into macrophages, 1×10^6 THP-1 cells were added per well of a 6-well plate in complete RPMI medium containing 50 ng/ml Phorbol 12-myristate 13-acetate (PMA, diluted in RPMI medium from a 1 mg/ml PMA stock in DMSO, Millipore Sigma, Cat. No. P1585). After 48 hours when the cells become adherent, the medium with PMA was removed, cells washed in 1×PBS once, and fresh complete RPMI was added. Cells were allowed to rest for an additional 24 hours before inflammasome activation with LPS and Nigericin.
# A 6-well plate of PMA differentiated THP-1 cells were treated with 0, 1 or 0.1 μg/ml LPS (Millipore Sigma, Cat. No. LPS25) for 3.5 hours. After 3.5 hours, cells were treated with 2.5 μM Nigericin for an additional 30 minutes to activate the inflammasome. Cells were washed in 1×PBS and lysed in 1× mammalian cell extraction buffer (BioVision, Cat. No. K269) containing 2 μM Dithiothreitol (DTT). Nuclei were spun down by centrifugation (10,000 rpm, 5 minutes, 4° C.) and the cleared supernatant was used to perform Western blots. […]
# Thrombin = target: T3, Thrombin (Homo sapiens, UniProt P00734); assay: SEPARATE assay: human peptidome library digest with Thrombin; assay type: biochemical; conditions: top 20 enriched peptides, human library (90-aa tiles); digest vs mock digest
# T3 construct: Thrombin (a serine protease); purchased SignalChem
# Experimental: The PCR2 amplicons are pooled and sequenced using an Illumina NextSeq instrument in standard output mode to obtain single-end 50 nucleotide reads. Dual indexed sample demultiplexing and clonal read count determination were performed using exact sequence matching. […] To calculate the normalization factor, 100 peptides were randomly selected from the mock digest conditions with a read count ranging between 10 and 40. The median read count value for these 100 peptides is calculated for each sample. The random peptide selection and median calculation is performed 20 times and the average of the 20 median values is calculated for each sample. Finally, the normalization factor is calculated by dividing the average median value for each sample by that for one of the mock digest conditions. […]
molecule,measurement,setting,value
B1,Fold enrichments,Caspase-1 [1],7.5 fold and 13 fold and 9 fold
B2,scoring in the SEPARATE assay,Caspase-1 [2],did not score
same,cleavage by endogenous Caspase-1 upon inflammasome activation (Western blot),endogenous Caspase-1,cleaved
B3,Thrombi Fold Change,Thrombin,10.98 fold
